Measured values published in US20180256731A1, “NOVEL INSULIN ANALOG AND USE THEREOF” (HANMI PHARM. CO., LTD, priority 2013, published 2018).

Columns and labels:
Insulin receptor [1] = assay: SPR (BIACORE 3000), receptor on CM5 chip; Test 3
Insulin receptor [2] = assay: SPR (BIACORE 3000), receptor on CM5 chip; Test 4
Insulin receptor [3] = assay: SPR (BIACORE 3000), receptor on CM5 chip; Test 5
Insulin receptor [4] = assay: SPR (BIACORE 3000), receptor on CM5 chip; Test 2
Insulin receptor [5] = assay: SPR (BIACORE 3000), receptor on CM5 chip; Test 1

Work on Native human insulin (ligand) yielded a Kd (Insulin receptor [1]) of 63.5 nM, a koff (Insulin receptor [1]) of 0.0107 s⁻¹ and a kon (Insulin receptor [1]) of 176000 M⁻¹ s⁻¹. It also gave a koff (Insulin receptor [2]) of 0.0124 s⁻¹, a kon (Insulin receptor [2]) of 290000 M⁻¹ s⁻¹ and a koff (Insulin receptor [3]) of 0.0097 s⁻¹. The kon (Insulin receptor [3]) was 200000 M⁻¹ s⁻¹, the koff (Insulin receptor [4]) was 0.0101 s⁻¹ and the kon (Insulin receptor [4]) was 229000 M⁻¹ s⁻¹. The koff (Insulin receptor [5]) was 0.00747 s⁻¹ and the kon (Insulin receptor [5]) was 221000 M⁻¹ s⁻¹.
